In one series the target is T1, TsaM (Comamonas testosteroni, UniProt P94679).
T1 construct: gene tsaM1; pET-28a(+)-TEV-tsaM, E. coli C41(DE3), purified as TsaC; trimer
T1 sequence (P94679 1-347): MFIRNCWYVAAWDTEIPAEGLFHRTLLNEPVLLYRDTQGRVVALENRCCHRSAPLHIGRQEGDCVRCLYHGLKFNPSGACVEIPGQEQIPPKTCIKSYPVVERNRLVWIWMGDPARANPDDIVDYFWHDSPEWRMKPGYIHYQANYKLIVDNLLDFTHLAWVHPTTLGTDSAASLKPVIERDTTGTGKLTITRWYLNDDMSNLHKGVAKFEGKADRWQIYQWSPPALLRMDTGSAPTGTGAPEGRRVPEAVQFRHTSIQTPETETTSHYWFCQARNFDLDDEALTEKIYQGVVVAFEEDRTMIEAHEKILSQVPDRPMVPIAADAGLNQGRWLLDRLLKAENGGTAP
In words: LC-MS product formation and NADH consumption (A340). The class given is biochemical. The following applies: with reductase VanB, Fe(II), 30 °C.

The target in series [1] is T2, TsaC (Comamonas testosteroni, UniProt P94681, G149N).
T2 construct: gene tsaC1; N-terminal His6 tag with TEV site (residues -20 to -1, kept), codon-optimized, pET-28a(+)-TEV, E. coli C41(DE3); native residues 1-252; homotetramer
T2 sequence (P94681 whole entry G149N, the tested form may be a part): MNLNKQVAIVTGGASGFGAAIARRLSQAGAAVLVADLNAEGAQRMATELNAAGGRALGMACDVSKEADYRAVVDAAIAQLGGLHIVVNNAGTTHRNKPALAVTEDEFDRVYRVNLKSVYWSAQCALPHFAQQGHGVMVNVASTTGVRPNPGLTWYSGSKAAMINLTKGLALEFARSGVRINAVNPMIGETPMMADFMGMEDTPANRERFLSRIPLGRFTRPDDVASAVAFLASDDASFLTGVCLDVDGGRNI
Briefly: GC-MS turnover. Format: biochemical. The following applies: 5 mM NAD+, 10 μM enzyme, 30 °C, 2 h.

The target in series [2] is T3, TsaC (Comamonas testosteroni, UniProt P94681, T143Q/G149N).
T3 construct: gene tsaC1; N-terminal His6 tag with TEV site (residues -20 to -1, kept), codon-optimized, pET-28a(+)-TEV, E. coli C41(DE3); native residues 1-252; homotetramer
T3 sequence (P94681 whole entry T143Q/G149N, the tested form may be a part): as the sequence (P94681 whole entry G149N, the tested form may be a part) above, with T143Q counted along it
In words: GC-MS turnover. Format: biochemical. The following applies: 5 mM NAD+, 10 μM enzyme, 30 °C, 2 h.

For series [3], the target named is T4, TsaC (Comamonas testosteroni, UniProt P94681).
T4 construct: gene tsaC1; N-terminal His6 tag with TEV site (residues -20 to -1, kept), codon-optimized, pET-28a(+)-TEV, E. coli C41(DE3); native residues 1-252; homotetramer
In words: differential scanning fluorimetry. The following applies: 10 μM enzyme; NADH alone. The class given is binding. A general note: In DSF a fluorescence change marks the thermal transition of the protein.

Series [4] concerns the molecule itself. In words: SEC; gel filtration in the purification of TsaM, purified as described for TsaC; lysis buffer 50 mM Tris-HCl pH 7.2, 250 mM NaCl.
Series [5] deals with the molecule itself. Briefly: SEC; HiPrep 16/60 Sephacryl S200-HR, 50 mM Hepes pH 8.0, 200 mM NaCl, 5% glycerol. A general note: Size exclusion chromatography separates by hydrodynamic size, large species first.
Substrate in series [6]: O=Cc1ccc(C(=O)O)cc1
Briefly: LC-MS steady-state kinetics. The class given is biochemical, Comamonas testosteroni. The following applies: 2 mM NAD+, 30 °C. The text has this:
(§1) LC-MS steady-state kinetics on TsaD

Substrate in series [7]: O=Cc1ccc(S(=O)(=O)O)cc1
In words: LC-MS steady-state kinetics. The class given is biochemical, Comamonas testosteroni. The following applies: 2 mM NAD+, 30 °C.
Description: as §1

Substrate in series [8]: O=C(O)c1ccc(CO)cc1
In words: LC-MS steady-state kinetics. Format: biochemical, Comamonas testosteroni. The following applies: 2 mM NAD+, 30 °C. An excerpt:
(§2) LC-MS steady-state kinetics on TsaC

Substrate in series [9]: O=Cc1ccc(C(=O)O)cc1
In words: LC-MS steady-state kinetics. The following applies: 2 mM NAD+, 30 °C, aldehyde hydrate proposed as the oxidized species. The class given is biochemical, Comamonas testosteroni.
Description: as §2

Substrate in series [10]: O=Cc1ccc(S(=O)(=O)O)cc1
Briefly: LC-MS steady-state kinetics. The class given is biochemical, Comamonas testosteroni. The following applies: 2 mM NAD+, 30 °C, aldehyde hydrate proposed as the oxidized species.
Description: as §2

Substrate in series [11]: O=S(=O)(O)c1ccc(CO)cc1
In words: LC-MS steady-state kinetics. Format: biochemical, Comamonas testosteroni. The following applies: 2 mM NAD+, 30 °C.
Description: as §2

Series [12] concerns the molecule itself. In words: crystal structure; hanging-drop vapor diffusion, 10 to 20 mg/ml protein with 2 mM NAD+, 0.2 M KCl, 20% PEG 3350, 10% glycerol, 293 K; two chains in the asymmetric unit, tetramer with two symmetry-related molecules; 2.18 A.
Series [13] deals with the molecule itself. In words: SEC-MALS; 15 ul of 90 uM protein, AdvanceBio 300A column, 50 mM Hepes pH 8.2, 200 mM NaCl, 5% glycerol, with either NAD+ or NADH, room temperature; about 0.3 uM at the apex of the largest peak.

Where a chain is given by its changes, count along the chain named. Names and notes keep the numbering of the source.

Take `Cc1ccc(C(=O)O)cc1` [4-methylbenzoate]: at TsaM, the “LC-MS product formation and NADH consumption (A340)” value was “TsaM and VanB consume more 4-methylbenzenesulfonate than 4-methylbenzoate”.
For `Cc1ccc(S(=O)(=O)O)cc1` [4-methylbenzenesulfonate], the “LC-MS product formation and NADH consumption (A340)” value at TsaM is reported as “more NADH is consumed in assays that contain 4-methylbenzenesulfonate rather than 4-methylbenzoate”.
Take `C[C@H](O)[C@@H](C)O` [meso-2,3-butanediol]: the GC-MS turnover result at TsaC [1] is “both the G149N and T143Q/G149N variants of TsaC show a significantly improved ability”; at TsaC [2] it was “T143Q/G149N variants of TsaC show a significantly improved ability to transform meso-2,3-butanediol into 3-hydroxy-2-butanone”.
Take `NC(=O)C1=CN([C@@H]2O[C@H](COP(=O)(O)OP(=O)(O)OC[C@H]3O[C@@H](n4cnc5c(N)ncnc54)[C@H](O)[C@@H]3O)[C@@H](O)[C@H]2O)C=CC1` [NADH]: the ΔTm (in general, the shift of the melting midpoint relative to a reference) at TsaC [3] is 12.4 °C.

B1: TsaM (wild type), Rieske oxygenase of the TsaMBCD pathway (enzyme, Comamonas testosteroni, UniProt P94679 1-347, looked up)
chain: T1 sequence (P94679 1-347)
notes: TsaM, Comamonas testosteroni, in pET-28a(+)-TEV-tsaM; also called wild-type TsaM; source: E. coli C41(DE3), purified as described for TsaC (gel filtration)
Take B1: the stoichiometry N – broadly, the number of molecules, sites or subunits per partner or assembly – in [4] worked out at 3.

B2: TsaD (wild type), aldehyde dehydrogenase of the TsaMBCD pathway (enzyme, Comamonas testosteroni, UniProt P94682 1-476, looked up)
chain: MSTVLYRCPELLIGGEWRPGRHEQRLVVRNPATGEPLDELRLASADDLQLALQTTQQAFEHWRQVPAHERCARLERGVARLRENTERIAHLLTLEQGKTLAEARMECAMAADLIKWYAEEARRVYGRVIPARLPNSRMEVFKFPVGPVAAFSPWNFPLVLSARKLGGAIAAGCSIVLKAAEETPASVAAMVDCLNQELPPGVVQLLYGVPAEVSQALIASPVVRKVTFTGSVPVGRHLAELSARHLKRITLELGGHAPVIVCGDADIARTVNLMVQHKFRNAGQACLAPTRFFVDRRIYGDFVDAFGATQALRVGAGMAAETQMGPVASARRQAAVQDLIARSVAAGARPVASAVPEAGYFVAPTLLADVPLDAPVMSEEPFGPVACAVPFDSLDQAIAQANHNPYGLAGYLFTDSAKAILAVSERLEVGSLAVNGMGVSVPEAPFGGVKDSGYGSESGTEGMEAFLDTKFMHYVA
notes: TsaD, Comamonas testosteroni, codon-optimized synthetic gene in pMCSG9; Expression followed the TsaC protocol with ampicillin; also called untagged TsaD; source: E. coli, purified (MBPTrap, TEV cleavage, HisTrap HP flow-through, Sephacryl S200-HR gel filtration); not shown: MBP, N-terminal, cleaved; His6, N-terminal, cleaved
For B2, in series [5], the “stoichiometry N” value came to 2. In addition, in series [6], the Km (in general, the substrate concentration at which the rate is half of its maximum) was found to be 21 ± 6.9 µM; the Vmax (in general, the top rate of the reaction or transport when substrate is in excess) was 13 µM/min; the kcat (commonly the maximal rate divided by the concentration of active sites) was found to be 0.105 ± 0.00983 s⁻¹; the kcat/Km (usually the turnover number divided by the Michaelis constant) turned out to be 5000 ± 1700 M⁻¹ s⁻¹. Besides, in series [7], the Km stood at 16 ± 2.5 µM, the Vmax was found to be 13 µM/min, the kcat turned out to be 0.112 ± 0.00517 s⁻¹ and the kcat/Km turned out to be 6900 ± 1100 M⁻¹ s⁻¹.

B3: TsaC (wild type), short-chain dehydrogenase/reductase of the TsaMBCD pathway (enzyme, Comamonas testosteroni, UniProt P94681 1-252, looked up)
chain: MNLNKQVAIVTGGASGFGAAIARRLSQAGAAVLVADLNAEGAQRMATELNAAGGRALGMACDVSKEADYRAVVDAAIAQLGGLHIVVNNAGTTHRNKPALAVTEDEFDRVYRVNLKSVYWSAQCALPHFAQQGHGVMVNVASTTGVRPGPGLTWYSGSKAAMINLTKGLALEFARSGVRINAVNPMIGETPMMADFMGMEDTPANRERFLSRIPLGRFTRPDDVASAVAFLASDDASFLTGVCLDVDGGRNI
notes: TsaC, Comamonas testosteroni, codon-optimized synthetic gene in pET-28a(+)-TEV; native residues 1 (initial methionine) to 252 (the four C-terminal residues are 249 to 252); the His6 tag and TEV protease cleavage site are numbered -20 to -1; The tag and TEV site (residues -20 to -1) are present in the crystallised protein but disordered; no cleavage of the tag is described; also called wild-type …
On to B3, for which, in series [8], the Km came to 18 ± 2.8 µM, the Vmax came out at 12 µM/min, the kcat came to 0.0983 ± 0.00367 s⁻¹ and the kcat/Km came out at 5400 ± 870 M⁻¹ s⁻¹. Further, in [9], the Km stood at 23 ± 4.7 µM, the Vmax worked out at 13 µM/min, the kcat came out at 0.112 ± 0.00667 s⁻¹ and the kcat/Km came out at 4800 ± 1000 M⁻¹ s⁻¹. Also, in series [10], the Km turned out to be 20 ± 3.5 µM, the maximum rate (Vmax) was found to be 15 µM/min, the kcat worked out at 0.125 ± 0.00583 s⁻¹ and the specificity constant (kcat/Km) turned out to be 6200 ± 1100 M⁻¹ s⁻¹. In addition, in series [11], the Km was 13 ± 2.0 µM, the Vmax is 12 µM/min, the kcat came out at 0.1 ± 0.004 s⁻¹ and the kcat/Km was 7900 ± 1300 M⁻¹ s⁻¹. For the same molecule, in series [12], the “stoichiometry N” value was 4.

B4: Y155F TsaC variant (enzyme, Comamonas testosteroni, UniProt P94681 1-252, looked up)
chain: B3 chain with Y155F
notes: TsaC, Comamonas testosteroni, made by site-directed mutagenesis of pET-28a(+)-TEV-tsaC; same limits as the wild type (native residues 1 to 252); Expressed and purified as the wild type; source: E. coli C41(DE3), purified (HisTrap HP, Sephacryl S200-HR gel filtration)
For B4, in series [13], the “stoichiometry N” value came out at 4.

The record behind these values is article PMC10579966, “The NADH recycling enzymes TsaC and TsaD regenerate reducing equivalents for Rieske oxygenase chemistry” (The Journal of Biological Chemistry, 2023).
